Assays:
[1] = system: T1, Thrombin Homopolymer (10 mer)
T1 sequence: GALVPRGSGERDG

[2] = system: T2, Thrombin Homopolymer (20 mer)
T2 sequence: GALVPRGSGERDG

[3] = system: T3, Thrombin Homopolymer (30 mer)
T3 sequence: GALVPRGSGERDG

[4] = system: T4, thrombin substrate monomer (norbornene-GALVPRGSGERDG-NH2)
T4 sequence: GALVPRGSGERDG

[5] = target: Fluorogenic Homopolymer (DP=20) of NorGly-E(EDANS)…(dabcyl)GSGSG-NH2; test: cell-based or functional assay
[6] = target: NorGly-E(EDANS)…(dabcyl)GSGSG-NH2; test: cell-based or functional assay

Substance | proteolytic cleavage by RP-HPLC [1] | proteolytic cleavage by RP-HPLC [2] | proteolytic cleavage by RP-HPLC [3] | proteolytic cleavage by RP-HPLC [4] | Homopolymer V0 (initial velocity of proteolysis) [5] [µM/min] | Monomer V0 (initial velocity of proteolysis) [6] [µM/min] | fold faster initial rate (V0) of the monomer than of the homopolymer [6] [fold]
thrombin (Sigma, cat. #T6884-100UN) | homopolymers at several degrees of polymerization were resistant to cleavage relative to the monomer, albeit not completely shut off from proteolysis | homopolymers at several degrees of polymerization were resistant to cleavage relative to the monomer, albeit not completely shut off from proteolysis | homopolymers at several degrees of polymerization were resistant to cleavage relative to the monomer, albeit not completely shut off from proteolysis | the monomeric peptide was readily degraded by thrombin |  |  | 
Pronase (Roche, cat. #10165921001) |  |  |  |  | 0.0021 | 0.2 | 17 to 95
